Tests used:
Experiment in all cases: IP/MS, LZTR1 wild type-FLAG, U87
[1] = target: T1, SREBF2 (human, UniProt Q12772 1-1141, limits assumed)
T1 sequence (looked up): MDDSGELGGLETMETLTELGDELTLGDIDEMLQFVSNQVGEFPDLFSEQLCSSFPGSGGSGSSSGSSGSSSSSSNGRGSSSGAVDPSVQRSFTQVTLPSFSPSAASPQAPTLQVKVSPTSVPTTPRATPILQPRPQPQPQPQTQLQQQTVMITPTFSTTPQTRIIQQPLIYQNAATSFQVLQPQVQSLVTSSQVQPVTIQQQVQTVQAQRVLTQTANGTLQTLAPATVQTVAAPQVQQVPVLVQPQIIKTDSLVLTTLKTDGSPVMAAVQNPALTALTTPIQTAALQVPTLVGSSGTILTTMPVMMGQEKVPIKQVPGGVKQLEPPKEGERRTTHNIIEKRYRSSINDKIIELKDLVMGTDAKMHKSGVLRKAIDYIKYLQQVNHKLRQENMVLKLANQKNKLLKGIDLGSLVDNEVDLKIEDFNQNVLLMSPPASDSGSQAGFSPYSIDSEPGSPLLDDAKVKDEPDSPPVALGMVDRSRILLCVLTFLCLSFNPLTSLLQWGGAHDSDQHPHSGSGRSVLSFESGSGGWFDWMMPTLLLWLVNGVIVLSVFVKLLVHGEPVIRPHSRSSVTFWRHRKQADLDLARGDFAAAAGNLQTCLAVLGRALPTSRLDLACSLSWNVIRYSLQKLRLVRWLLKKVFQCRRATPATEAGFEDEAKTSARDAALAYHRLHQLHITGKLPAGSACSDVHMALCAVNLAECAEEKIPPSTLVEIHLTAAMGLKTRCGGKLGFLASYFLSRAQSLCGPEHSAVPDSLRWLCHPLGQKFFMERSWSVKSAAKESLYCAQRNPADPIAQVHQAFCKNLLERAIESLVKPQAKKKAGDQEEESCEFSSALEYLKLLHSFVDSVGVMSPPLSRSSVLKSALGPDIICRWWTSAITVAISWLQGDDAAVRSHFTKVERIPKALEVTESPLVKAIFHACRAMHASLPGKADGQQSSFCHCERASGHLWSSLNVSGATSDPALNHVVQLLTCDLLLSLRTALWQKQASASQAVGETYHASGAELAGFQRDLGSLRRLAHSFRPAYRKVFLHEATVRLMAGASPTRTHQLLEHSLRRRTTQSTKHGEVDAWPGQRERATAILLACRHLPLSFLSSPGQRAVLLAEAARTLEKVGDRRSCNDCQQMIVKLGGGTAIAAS
In short: (§1)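 Extracted peptides in 3% acetonitrile/0.1% formic acid ran on a 50 cm C18 column into an Orbitrap Fusion, with MaxQuant identification and spectral counting.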

[2] = target: VPS13A (human, UniProt Q96RL7 1-3174, limits assumed)
In short: as §1

[3] = target: T2, LAMB3 (human, UniProt Q13751 18-1172)
T2 sequence (looked up): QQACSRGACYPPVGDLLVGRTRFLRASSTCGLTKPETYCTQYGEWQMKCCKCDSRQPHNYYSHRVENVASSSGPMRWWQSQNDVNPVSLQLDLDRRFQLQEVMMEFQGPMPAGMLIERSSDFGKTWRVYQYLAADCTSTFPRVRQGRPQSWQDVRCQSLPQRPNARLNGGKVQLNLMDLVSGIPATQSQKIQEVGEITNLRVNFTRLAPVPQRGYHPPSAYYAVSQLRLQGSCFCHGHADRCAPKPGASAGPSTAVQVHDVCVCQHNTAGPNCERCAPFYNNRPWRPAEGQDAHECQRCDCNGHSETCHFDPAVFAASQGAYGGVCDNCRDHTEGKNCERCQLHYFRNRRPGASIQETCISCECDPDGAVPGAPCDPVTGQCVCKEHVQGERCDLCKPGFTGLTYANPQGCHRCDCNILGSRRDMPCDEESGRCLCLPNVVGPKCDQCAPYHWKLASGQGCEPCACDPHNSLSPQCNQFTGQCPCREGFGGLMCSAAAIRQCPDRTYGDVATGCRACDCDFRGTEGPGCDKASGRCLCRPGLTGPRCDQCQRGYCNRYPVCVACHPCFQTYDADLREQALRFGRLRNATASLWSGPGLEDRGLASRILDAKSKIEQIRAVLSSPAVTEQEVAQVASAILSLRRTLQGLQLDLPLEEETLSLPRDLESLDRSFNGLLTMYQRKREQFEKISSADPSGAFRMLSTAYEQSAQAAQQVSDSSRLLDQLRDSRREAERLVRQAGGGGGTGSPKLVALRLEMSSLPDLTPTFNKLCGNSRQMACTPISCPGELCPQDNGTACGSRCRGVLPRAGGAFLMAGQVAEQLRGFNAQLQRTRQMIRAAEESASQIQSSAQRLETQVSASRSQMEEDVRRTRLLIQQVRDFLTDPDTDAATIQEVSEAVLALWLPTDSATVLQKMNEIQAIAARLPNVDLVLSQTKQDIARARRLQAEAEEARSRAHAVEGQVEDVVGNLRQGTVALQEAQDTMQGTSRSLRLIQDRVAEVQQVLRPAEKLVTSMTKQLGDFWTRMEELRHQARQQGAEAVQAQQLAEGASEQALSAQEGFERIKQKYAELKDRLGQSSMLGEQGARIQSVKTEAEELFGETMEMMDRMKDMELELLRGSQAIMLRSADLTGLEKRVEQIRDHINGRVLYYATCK
In short: as §1

Sequence of VPS13A (Q96RL7 whole entry): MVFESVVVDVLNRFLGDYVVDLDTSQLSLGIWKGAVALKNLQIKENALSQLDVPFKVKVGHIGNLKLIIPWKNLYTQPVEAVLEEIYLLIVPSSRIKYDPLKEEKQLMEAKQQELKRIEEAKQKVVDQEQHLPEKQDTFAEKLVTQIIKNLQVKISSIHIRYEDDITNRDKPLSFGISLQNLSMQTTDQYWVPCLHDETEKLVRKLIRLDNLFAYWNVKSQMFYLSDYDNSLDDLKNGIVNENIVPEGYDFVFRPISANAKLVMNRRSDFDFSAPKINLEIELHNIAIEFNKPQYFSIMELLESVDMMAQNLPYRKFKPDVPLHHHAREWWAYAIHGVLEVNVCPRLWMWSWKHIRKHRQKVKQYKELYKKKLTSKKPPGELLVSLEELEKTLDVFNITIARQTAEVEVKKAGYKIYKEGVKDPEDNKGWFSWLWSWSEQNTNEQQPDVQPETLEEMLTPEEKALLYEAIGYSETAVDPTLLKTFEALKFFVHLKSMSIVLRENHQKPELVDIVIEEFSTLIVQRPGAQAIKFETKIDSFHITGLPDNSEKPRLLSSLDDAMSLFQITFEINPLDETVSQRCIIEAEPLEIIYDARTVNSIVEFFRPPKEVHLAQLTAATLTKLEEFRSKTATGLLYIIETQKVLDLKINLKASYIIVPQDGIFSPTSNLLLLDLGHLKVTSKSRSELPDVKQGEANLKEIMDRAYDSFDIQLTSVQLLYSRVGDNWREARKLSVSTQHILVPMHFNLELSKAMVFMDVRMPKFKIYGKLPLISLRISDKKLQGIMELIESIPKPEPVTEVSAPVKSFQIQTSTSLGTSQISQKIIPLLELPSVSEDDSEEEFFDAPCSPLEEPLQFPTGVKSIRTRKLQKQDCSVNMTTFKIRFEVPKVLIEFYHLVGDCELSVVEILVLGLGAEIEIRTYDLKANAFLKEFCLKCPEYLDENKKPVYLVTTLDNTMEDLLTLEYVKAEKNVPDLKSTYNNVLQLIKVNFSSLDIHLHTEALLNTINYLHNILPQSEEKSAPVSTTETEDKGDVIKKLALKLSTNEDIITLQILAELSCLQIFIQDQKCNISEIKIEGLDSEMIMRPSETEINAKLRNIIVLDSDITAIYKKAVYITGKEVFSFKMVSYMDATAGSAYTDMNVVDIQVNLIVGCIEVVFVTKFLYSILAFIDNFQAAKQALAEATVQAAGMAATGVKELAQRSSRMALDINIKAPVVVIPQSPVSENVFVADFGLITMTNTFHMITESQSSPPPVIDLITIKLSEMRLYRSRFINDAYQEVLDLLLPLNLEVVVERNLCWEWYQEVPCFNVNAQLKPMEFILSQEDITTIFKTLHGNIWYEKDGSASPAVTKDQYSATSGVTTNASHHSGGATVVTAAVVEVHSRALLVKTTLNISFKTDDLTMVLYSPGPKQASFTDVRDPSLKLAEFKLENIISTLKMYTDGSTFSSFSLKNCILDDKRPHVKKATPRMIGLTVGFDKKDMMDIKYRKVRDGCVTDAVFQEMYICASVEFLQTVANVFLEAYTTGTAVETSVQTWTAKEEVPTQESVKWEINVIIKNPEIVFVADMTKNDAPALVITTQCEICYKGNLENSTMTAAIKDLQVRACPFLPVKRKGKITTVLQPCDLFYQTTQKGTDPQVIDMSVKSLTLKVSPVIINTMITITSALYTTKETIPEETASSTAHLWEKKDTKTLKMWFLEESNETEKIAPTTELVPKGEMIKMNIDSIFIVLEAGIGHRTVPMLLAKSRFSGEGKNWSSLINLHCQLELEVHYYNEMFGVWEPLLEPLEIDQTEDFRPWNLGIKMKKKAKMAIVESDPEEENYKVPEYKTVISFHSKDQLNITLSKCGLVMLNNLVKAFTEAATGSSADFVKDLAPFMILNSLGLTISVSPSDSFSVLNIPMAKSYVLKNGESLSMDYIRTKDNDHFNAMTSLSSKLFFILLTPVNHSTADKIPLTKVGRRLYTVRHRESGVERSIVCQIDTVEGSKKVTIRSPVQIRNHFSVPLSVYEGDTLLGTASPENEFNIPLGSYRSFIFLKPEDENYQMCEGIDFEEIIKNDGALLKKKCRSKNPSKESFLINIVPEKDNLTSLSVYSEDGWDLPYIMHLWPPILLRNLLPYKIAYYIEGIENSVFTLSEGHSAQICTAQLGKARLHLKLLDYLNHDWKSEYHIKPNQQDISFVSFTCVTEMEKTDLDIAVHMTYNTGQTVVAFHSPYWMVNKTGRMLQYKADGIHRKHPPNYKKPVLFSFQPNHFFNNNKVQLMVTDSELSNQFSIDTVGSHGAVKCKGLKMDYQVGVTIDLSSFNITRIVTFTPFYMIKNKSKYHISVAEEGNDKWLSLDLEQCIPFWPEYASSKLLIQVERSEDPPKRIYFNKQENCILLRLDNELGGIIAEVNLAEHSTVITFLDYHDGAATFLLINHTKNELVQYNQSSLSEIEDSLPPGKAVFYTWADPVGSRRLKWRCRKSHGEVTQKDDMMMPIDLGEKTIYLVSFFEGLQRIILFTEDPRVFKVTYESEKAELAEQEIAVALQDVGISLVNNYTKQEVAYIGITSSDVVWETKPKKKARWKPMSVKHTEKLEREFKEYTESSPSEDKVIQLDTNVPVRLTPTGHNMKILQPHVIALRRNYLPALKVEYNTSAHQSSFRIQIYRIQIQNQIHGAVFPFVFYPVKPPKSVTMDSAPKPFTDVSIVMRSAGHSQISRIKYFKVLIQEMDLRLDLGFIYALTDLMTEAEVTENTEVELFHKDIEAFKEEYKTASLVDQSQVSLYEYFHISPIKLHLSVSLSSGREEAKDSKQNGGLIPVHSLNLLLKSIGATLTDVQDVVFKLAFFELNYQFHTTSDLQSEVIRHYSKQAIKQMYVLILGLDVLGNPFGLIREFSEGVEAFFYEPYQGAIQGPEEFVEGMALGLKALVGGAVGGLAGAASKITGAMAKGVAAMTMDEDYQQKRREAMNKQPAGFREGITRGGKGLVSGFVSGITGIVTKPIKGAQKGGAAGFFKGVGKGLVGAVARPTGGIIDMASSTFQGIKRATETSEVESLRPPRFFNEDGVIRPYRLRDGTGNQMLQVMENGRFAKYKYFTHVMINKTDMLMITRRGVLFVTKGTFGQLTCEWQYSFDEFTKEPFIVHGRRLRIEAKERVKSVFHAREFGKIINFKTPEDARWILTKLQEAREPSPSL

binding result [1]: binds | binding result [2]: binds | binding result [3]: binds
B1: LZTR1-FLAG (other, human, UniProt Q8N653 1-840, looked up)
chain: MAGPGSTGGQIGAAALAGGARSKVAPSVDFDHSCSDSVEYLTLNFGPFETVHRWRRLPPCDEFVGARRSKHTVVAYKDAIYVFGGDNGKTMLNDLLRFDVKDCSWCRAFTTGTPPAPRYHHSAVVYGSSMFVFGGYTGDIYSNSNLKNKNDLFEYKFATGQWTEWKIEGRLPVARSAHGATVYSDKLWIFAGYDGNARLNDMWTIGLQDRELTCWEEVAQSGEIPPSCCNFPVAVCRDKMFVFSGQSGAKITNNLFQFEFKDKTWTRIPTEHLLRGSPPPPQRRYGHTMVAFDRHLYVFGGAADNTLPNELHCYDVDFQTWEVVQPSSDSEVGGAEVPERACASEEVPTLTYEERVGFKKSRDVFGLDFGTTSAKQPTQPASELPSGRLFHAAAVISDAMYIFGGTVDNNIRSGEMYRFQFSCYPKCTLHEDYGRLWESRQFCDVEFVLGEKEECVQGHVAIVTARSRWLRRKITQARERLAQKLEQEAAPVPREAPGVAAGGARPPLLHVAIREAEARPFEVLMQFLYTDKIKYPRKGHVEDVLLIMDVYKLALSFQLCRLEQLCRQYIEASVDLQNVLVVCESAARLQLSQLKEHCLNFVVKESHFNQVIMMKEFERLSSPLIVEIVRRKQQPPPRTPLDQPVDIGTSLIQDMKAYLEGAGAEFCDITLLLDGHPRPAHKAILAARSSYFEAMFRSFMPEDGQVNISIGEMVPSRQAFESMLRYIYYGEVNMPPEDSLYLFAAPYYYGFYNNRLQAYCKQNLEMNVTVQNVLQILEAADKTQALDMKRHCLHIIVHQFTKVSKLPTLRSLSQQLLLDIIDSLASHISDKQCAELGADI
notes: Expressed in HEK 293T, HeLa or U87 cells; used as cell lysate; also called LZTR1 wild type-FLAG; LZTR1 WT; not shown: FLAG tag at the C-terminus

Source: patent US20250262210A1 (TRUSTEES OF COLUMBIA UNIVERSITY IN THE CITY OF NEW YORK, published 2025)
